Reference: US20240132578A1

Columns and labels:
Experiment in all cases: cell-based or functional assay
[1] = molecular target: HIV-1 Env of isolate 93IN905 (Clade C) (HIV-1)
[2] = molecular target: HIV-1 Env of isolate MGRM-D-026 (clade D pseudovirus) (HIV-1)
[3] = molecular target: HIV-1 Env of isolate MGRM-D-024 (clade D pseudovirus) (HIV-1)
[4] = molecular target: HIV-1 Env of isolate MGRM-D-016 (clade D pseudovirus) (HIV-1)
[5] = molecular target: HIV-1 MGRM-AE-004 Env (pseudovirus) (HIV-1)
[6] = molecular target: HIV-1 envelope glycoprotein (Env) of isolate MGRM-C-006 (HIV-1)
HIV-1 APV6 Env (HIV-1) = molecular target: HIV-1 APV6 Env (HIV-1)
[7] = molecular target: HIV-1 Env of isolate TRJ0.58 (Acute), clade B (HIV-1)
[8] = molecular target: HIV-1 Env of isolate 92UG001 (clade D pseudovirus) (HIV-1)
HIV-1 NL43 Env (HIV-1) = molecular target: HIV-1 NL43 Env (HIV-1)
[9] = molecular target: HIV-1 MGRM-D-018 envelope protein (Env) on pseudovirus (HIV-1)
[10] = molecular target: HIV-1 Env of isolate PVO.4 (Acute), clade B (HIV-1)
[11] = molecular target: HIV-1 MGRM-C-026 Env (HIV-1)
[12] = molecular target: HIV-1 Env of isolate MGRM-D-028 (clade D pseudovirus) (HIV-1)
[13] = molecular target: HIV-1 envelope glycoprotein (Env) of isolate MGRM-C-019 (HIV-1)
[14] = molecular target: HIV-1 Env of isolate MGRM-G-009 (subtype G) (HIV-1)
[15] = molecular target: HIV-1 Env of isolate 92RW026 (clade A pseudovirus) (HIV-1)
[16] = molecular target: HIV-1 MGRM-C-027 Env (HIV-1)
[17] = molecular target: HIV-1 Env of pseudovirus MGRM-F1-015 (clade F) (HIV-1)
[18] = molecular target: HIV-1 93UG077 envelope (Env) on pseudovirus (HIV-1)
[19] = molecular target: HIV-1 Env of isolate MGRM-A-006 (clade A pseudovirus) (HIV-1)
[20] = molecular target: HIV-1 Env of isolate MGRM-F1-013 (pseudovirus) (HIV-1)
[21] = molecular target: HIV-1 envelope glycoprotein (Env) of isolate THRO.18, on pseudovirus (HIV-1)
[22] = molecular target: HIV-1 Env of isolate MGRM-AG-008 (pseudovirus) (HIV-1)
[23] = molecular target: HIV-1 envelope glycoprotein (Env) of isolate 6535.3, on pseudovirus (HIV-1)
[24] = molecular target: HIV-1 Env of isolate MGRM-AG-005 (pseudovirus) (HIV-1)
[25] = molecular target: HIV-1 envelope glycoprotein (Env) of isolate MG RM-A-004, subtype A (HIV-1)
[26] = molecular target: HIV-1 envelope glycoprotein (Env) of isolate 94 KE 105, subtype AC (HIV-1)
[27] = molecular target: HIV-1 JR-CSF Env D417A (HIV-1 (isolate JR-CSF)) (UniProt P20871)
[28] = molecular target: HIV-1 envelope glycoprotein (Env) of isolate APV_17, on pseudovirus (HIV-1)
[29] = molecular target: aMLV envelope protein on pseudovirus (negative control)
[30] = molecular target: HIV-1 92UG005 envelope protein (Env) on pseudovirus (HIV-1)
aMLV envelope = molecular target: aMLV envelope

1443_C16 (PG16) (TCN-116) (antibody), sequence (VH): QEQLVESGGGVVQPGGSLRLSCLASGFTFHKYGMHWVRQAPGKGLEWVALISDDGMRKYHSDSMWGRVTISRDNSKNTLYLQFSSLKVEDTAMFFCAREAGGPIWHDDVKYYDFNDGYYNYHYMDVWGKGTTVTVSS
1443_C16 (PG16) (TCN-116) (antibody), sequence (VL): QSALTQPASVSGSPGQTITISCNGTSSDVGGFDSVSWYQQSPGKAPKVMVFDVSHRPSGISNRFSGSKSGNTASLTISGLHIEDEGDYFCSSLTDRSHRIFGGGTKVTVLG

Substance	IC90 (neutralization of pseudovirus) [1] [µg/mL]	IC50, pseudovirus neutralization [2] [µg/mL]	IC50, pseudovirus neutralization [3] [µg/mL]	IC50, pseudovirus neutralization [4] [µg/mL]	IC50 (µg/ml), pseudovirus neutralization [5] [µg/mL]	IC50 (µg/ml), pseudovirus neutralization [6] [µg/mL]	IC50 (µg/ml), pseudovirus neutralization [7] [µg/mL]	IC50, pseudovirus neutralization [8] [µg/mL]	IC50, pseudovirus neutralization (HIV-1 NL43 Env (HIV-1)) [µg/mL]	IC50 (µg/ml), pseudovirus neutralization [10] [µg/mL]	IC50, pseudovirus neutralization [12] [µg/mL]	IC50 (µg/ml), pseudovirus neutralization [13] [µg/mL]	IC50 (µg/ml), pseudovirus neutralization [15] [µg/mL]	IC50 [17] [µg/mL]	neutralization IC50 [18] [µg/mL]	IC50 (µg/ml), pseudovirus neutralization [19] [µg/mL]	IC50 (µg/mL), pseudovirus neutralization [20] [µg/mL]	IC50, pseudovirus neutralization [21] [µg/mL]	IC50 (µg/mL), pseudovirus neutralization [22] [µg/mL]	IC50, pseudovirus neutralization [23] [µg/mL]	further results
1496_C09 (PG9) (TCN-109) (antibody)	1.89	17.5	0.03	0.1	0.01	0.23	0.43	41.8	0.687	4.01	4.39	0.01	0.27								IC50, pseudovirus neutralization (HIV-1 APV6 Env (HIV-1)): 0.214 µg/mL; IC50 (ug/mL), pseudovirus neutralization [9]: 0.0444 µg/mL; IC50, pseudovirus neutralization [11]: 0.113 µg/mL; IC50 (µg/mL), pseudovirus neutralization [14]: 10.7 µg/mL; IC50, pseudovirus neutralization [16]: 2.45 µg/mL
2F5 (antibody)	> 50	4.37	> 50	9.85	0.98	> 50	> 50	13		> 50	> 50	> 50	8.63	0.1	4.45	15.7					
5145_B14 (PGT-127) (antibody)																	> 50	> 50	> 50	0.02	IC50 (µg/mL), pseudovirus neutralization [24]: > 50 µg/mL; IC50, pseudovirus neutralization [25]: > 50 µg/mL; IC50, pseudovirus neutralization [26]: 0.023 µg/mL; Fold IC50 increase relative to wild-type (pseudovirus neutralization) [27]: 0.4 fold; IC50, pseudovirus neutralization [28]: 10.4 µg/mL
1495_C14 (PGC14) (antibody)		> 50	> 50	> 50	> 50	> 50	> 50	> 50		> 50	> 50	12	> 50	> 50	> 50	> 50					
5123_A06 (PGT-125) (antibody)									> 10								> 50	> 50	> 50	0.01	IC50, pseudovirus neutralization (HIV-1 APV6 Env (HIV-1)): 0.0359 µg/mL; IC50 (ug/mL), pseudovirus neutralization [29]: > 10 µg/mL; IC50 (ug/mL), pseudovirus neutralization [30]: > 10 µg/mL; IC50 (ug/mL), pseudovirus neutralization [9]: 0.0382 µg/mL; IC50, pseudovirus neutralization [11]: 0.0106 µg/mL; IC50, pseudovirus neutralization (aMLV envelope): > 10 µg/mL; IC50 (µg/mL), pseudovirus neutralization [24]: > 50 µg/mL; IC50, pseudovirus neutralization [25]: > 50 µg/mL; IC50, pseudovirus neutralization [26]: 0.004 µg/mL; Fold IC50 increase relative to wild-type (pseudovirus neutralization) [27]: 0.5 fold; IC50, pseudovirus neutralization [28]: 8.06 µg/mL; IC50, pseudovirus neutralization [16]: > 10 µg/mL
5141_B17 (PGT-126) (antibody)									> 10								> 50	> 50	> 50	0.022	IC50, pseudovirus neutralization (HIV-1 APV6 Env (HIV-1)): 0.0249 µg/mL; IC50 (ug/mL), pseudovirus neutralization [29]: > 10 µg/mL; IC50 (ug/mL), pseudovirus neutralization [30]: 0.0181 µg/mL; IC50 (ug/mL), pseudovirus neutralization [9]: 0.0093 µg/mL; IC50, pseudovirus neutralization [11]: 0.0076 µg/mL; IC50, pseudovirus neutralization (aMLV envelope): > 10 µg/mL; IC50 (µg/mL), pseudovirus neutralization [24]: 1.21 µg/mL; IC50, pseudovirus neutralization [25]: > 50 µg/mL; IC50, pseudovirus neutralization [26]: 0.006 µg/mL; Fold IC50 increase relative to wild-type (pseudovirus neutralization) [27]: 1 fold; IC50, pseudovirus neutralization [28]: 0.353 µg/mL; IC50, pseudovirus neutralization [16]: 1.14 µg/mL
4838_L06 (PGT-121) (antibody)									> 10								0.083	> 50		0.005	IC50 (ug/mL), pseudovirus neutralization [29]: > 10 µg/mL; IC50 (ug/mL), pseudovirus neutralization [30]: > 10 µg/mL; IC50, pseudovirus neutralization (aMLV envelope): > 10 µg/mL; IC50, pseudovirus neutralization [25]: > 50 µg/mL; IC50, pseudovirus neutralization [26]: 0.029 µg/mL; IC50, pseudovirus neutralization [28]: 0.066 µg/mL
4877_D15 (PGT-122) (antibody)									> 10								0.152	> 50	> 50	0.006	IC50, pseudovirus neutralization (HIV-1 APV6 Env (HIV-1)): 0.0851 µg/mL; IC50 (ug/mL), pseudovirus neutralization [29]: > 10 µg/mL; IC50 (ug/mL), pseudovirus neutralization [30]: > 10 µg/mL; IC50 (ug/mL), pseudovirus neutralization [9]: 0.0115 µg/mL; IC50, pseudovirus neutralization [11]: 0.0089 µg/mL; IC50, pseudovirus neutralization (aMLV envelope): > 10 µg/mL; IC50 (µg/mL), pseudovirus neutralization [24]: 33.9 µg/mL; IC50, pseudovirus neutralization [25]: > 50 µg/mL; IC50, pseudovirus neutralization [26]: 0.056 µg/mL; IC50, pseudovirus neutralization [28]: 0.25 µg/mL; IC50, pseudovirus neutralization [16]: 0.0388 µg/mL
1443_C16 (PG16) (TCN-116) (antibody)	> 50	> 50	0.02	0.02	0.002	2.62	1.16	> 50		5.43	> 50	0.002	0.03	> 50	> 50	> 50					
4E10 (antibody)	12.8	2.95	3.6	15.4	1.27	4.94	11.9	13.6		18.3	1.28	3.49	12.9	0.53	11.2	9.87					
2G12 (antibody)	> 50	> 50	> 50	> 50	> 50	> 50	> 50	> 50		0.8	> 50	> 50	17.2	> 50	> 50	13.8					
PGV04 (antibody)																			2.48		IC50 (µg/mL), pseudovirus neutralization [24]: 0.027 µg/mL; IC50 (µg/mL), pseudovirus neutralization [14]: 0.043 µg/mL
b12 (antibody)	> 50	1.55	5.92	1.12	> 50	> 50	> 50	1.01		> 50	0.78	> 50	> 50	> 50	41.1	13.6					
